The substances below were run against IL2 receptors (on the HEK IL-2 reporter cell line) (human) (UniProt P01589) (assay: cell-based or functional assay).
Sequence of IL2 receptors (on the HEK IL-2 reporter cell line) (human) (P01589 22-272, chain 1 of 3): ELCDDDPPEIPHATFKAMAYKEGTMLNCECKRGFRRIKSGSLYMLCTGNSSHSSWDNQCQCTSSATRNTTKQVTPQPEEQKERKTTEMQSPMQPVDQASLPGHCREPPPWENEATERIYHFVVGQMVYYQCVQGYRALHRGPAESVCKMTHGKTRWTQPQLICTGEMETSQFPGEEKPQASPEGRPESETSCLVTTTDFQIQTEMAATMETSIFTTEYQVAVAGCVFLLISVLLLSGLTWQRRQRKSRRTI
Sequence of IL2 receptors (on the HEK IL-2 reporter cell line) (human) (P14784 27-551, chain 2 of 3, further chain): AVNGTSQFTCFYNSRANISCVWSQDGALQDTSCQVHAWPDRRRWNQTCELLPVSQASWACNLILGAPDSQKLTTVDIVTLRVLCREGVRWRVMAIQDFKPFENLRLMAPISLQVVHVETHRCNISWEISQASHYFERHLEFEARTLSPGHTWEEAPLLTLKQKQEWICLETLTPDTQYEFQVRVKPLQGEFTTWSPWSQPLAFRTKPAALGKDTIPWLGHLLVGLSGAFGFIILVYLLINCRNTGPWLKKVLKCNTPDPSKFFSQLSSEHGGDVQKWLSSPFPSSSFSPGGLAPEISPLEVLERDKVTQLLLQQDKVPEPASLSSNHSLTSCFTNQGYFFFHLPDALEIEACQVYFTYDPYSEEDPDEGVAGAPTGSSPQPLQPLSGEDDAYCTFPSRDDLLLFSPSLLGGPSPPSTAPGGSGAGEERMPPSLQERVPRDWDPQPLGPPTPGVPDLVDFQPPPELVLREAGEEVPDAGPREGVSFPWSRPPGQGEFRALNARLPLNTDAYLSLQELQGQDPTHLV
Sequence of IL2 receptors (on the HEK IL-2 reporter cell line) (human) (P31785 23-369, chain 3 of 3, further chain): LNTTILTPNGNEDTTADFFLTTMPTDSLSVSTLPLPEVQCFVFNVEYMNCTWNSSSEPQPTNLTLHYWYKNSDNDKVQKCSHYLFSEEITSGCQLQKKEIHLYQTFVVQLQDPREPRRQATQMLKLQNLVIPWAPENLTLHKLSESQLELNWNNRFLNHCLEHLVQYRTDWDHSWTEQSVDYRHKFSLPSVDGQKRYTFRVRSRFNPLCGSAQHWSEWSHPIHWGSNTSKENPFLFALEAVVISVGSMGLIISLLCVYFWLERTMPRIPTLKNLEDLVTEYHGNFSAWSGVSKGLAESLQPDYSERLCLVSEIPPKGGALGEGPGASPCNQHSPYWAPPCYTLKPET
“Cas9-2xNLS-IL2(superkine) (from UniProt P60568 21-153)” was tested, and the IL-2 EC50 (nM) (approx.); SEAP induction in the HEK IL-2 reporter cell line, OD was 0.87 nM.
Work on “Cas9-2xNLS-mouse WT IL2 (from UniProt P04351 21-169)” yielded an IL-2 EC50 (nM) (approx.); SEAP induction in the HEK IL-2 reporter cell line, OD of 0.34 nM.
IL2(SK)-SpyTag (ligand) was tested, and the IL-2 EC50 (nM) (approx.); SEAP induction in the HEK IL-2 reporter cell line, OD was 0.037 nM.
With “SpyCatcher-Cas9(WT)-2xNLS:Spytag-IL2(SK) conjugate (from UniProt Q99ZW2 2-1368)” the IL-2 EC50 (nM) (approx.); SEAP induction in the HEK IL-2 reporter cell line, OD was 0.0095 nM.
“recombinant mouse IL-2 (from UniProt P04351 21-169) (ligand)” was tested, and the IL-2 EC50 (nM) (approx.); SEAP induction in the HEK IL-2 reporter cell line, OD was 0.0057 nM.

From patent publication US20220010337A1
